Patent US20210388087A1 (Chugai, published 2021)

B1: CE115HA000 N31H (antibody, human IgG1, kappa, L234A L235A, N297A, name in Kabat numbering)
heavy: QVQLVESGGGVVQPGRSLRLSCAASGFTFSHAWMHWVRQAPGKGLEWVAQIKAKSNNYATYYAESVKGRFTISRDDSKNSLYLQMNSLKTEDTAVYYCRYVHYGAYYGVDAWGQGTTVTVSSASTKGPSVFPLAPSSKSTSGGTAALGCLVKDYFPEPVTVSWNSGALTSGVHTFPAVLQSSGLYSLSSVVTVPSSSLGTQTYICNVNHKPSNTKVDKKVEPKSCDKTHTCPPCPAPEAAGGPSVFLFPPKPKDTLMISRTPEVTCVVVDVSHEDPEVKFNWYVDGVEVHNAKTKPREEQYASTYRVVSVLTVLHQDWLNGKEYKCKVSNKALPAPIEKTISKAKGQPREPQVYTLPPSRCELTKNQVSLSCAVKGFYPSDIAVEWESNGQPENNYKTTPPVLDSDGSFFLVSKLTVDKSRWQQGNVFSCSVMHEALHNHYTQKSLSLSPDYKDDDDK
chain: EPKSSDKTHTCPPCPAPELLGGPSVFLFPPKPKDTLMISRTPEVTCVVVDVSHEDPEVKFNWYVDGVEVHNAKTKPREEQYNSTYRVVSVLTVLHQDWLNGKEYKCKVSNKALPAPIEKTISKAKGQPREPQVCTLPPSRDELTKNQVSLWCLVKGFYPSDIAVEWESNGQPENNYKTTPPVLDSDGSFFLYSKLTVDKSRWQQGNVFSCSVMHEALHNRYTQKSLSLSP
light: DIVMTQSPLSLPVTPGEPASISCRSSQSLVHSNRNTYLHWYQQKPGQAPRLLIYKVSNRFSGVPDRFSGSGSGTDFTLKISRVEAEDVGVYYCGQGTQVPYTFGQGTKLEIKRTVAAPSVFIFPPSDEQLKSGTASVVCLLNNFYPREAKVQWKVDNALQSGNSQESVTEQDSKDSTYSLSSTLTLSKADYEKHKVYACEVTHQGLSSPVTKSFNRGEC
notes: one-arm antibody
B2: CE115HA000 N31I (antibody, human IgG1, kappa, L234A L235A, N297A, name in Kabat numbering)
heavy: QVQLVESGGGVVQPGRSLRLSCAASGFTFSIAWMHWVRQAPGKGLEWVAQIKAKSNNYATYYAESVKGRFTISRDDSKNSLYLQMNSLKTEDTAVYYCRYVHYGAYYGVDAWGQGTTVTVSSASTKGPSVFPLAPSSKSTSGGTAALGCLVKDYFPEPVTVSWNSGALTSGVHTFPAVLQSSGLYSLSSVVTVPSSSLGTQTYICNVNHKPSNTKVDKKVEPKSCDKTHTCPPCPAPEAAGGPSVFLFPPKPKDTLMISRTPEVTCVVVDVSHEDPEVKFNWYVDGVEVHNAKTKPREEQYASTYRVVSVLTVLHQDWLNGKEYKCKVSNKALPAPIEKTISKAKGQPREPQVYTLPPSRCELTKNQVSLSCAVKGFYPSDIAVEWESNGQPENNYKTTPPVLDSDGSFFLVSKLTVDKSRWQQGNVFSCSVMHEALHNHYTQKSLSLSPDYKDDDDK
chain: EPKSSDKTHTCPPCPAPELLGGPSVFLFPPKPKDTLMISRTPEVTCVVVDVSHEDPEVKFNWYVDGVEVHNAKTKPREEQYNSTYRVVSVLTVLHQDWLNGKEYKCKVSNKALPAPIEKTISKAKGQPREPQVCTLPPSRDELTKNQVSLWCLVKGFYPSDIAVEWESNGQPENNYKTTPPVLDSDGSFFLYSKLTVDKSRWQQGNVFSCSVMHEALHNRYTQKSLSLSP
light: DIVMTQSPLSLPVTPGEPASISCRSSQSLVHSNRNTYLHWYQQKPGQAPRLLIYKVSNRFSGVPDRFSGSGSGTDFTLKISRVEAEDVGVYYCGQGTQVPYTFGQGTKLEIKRTVAAPSVFIFPPSDEQLKSGTASVVCLLNNFYPREAKVQWKVDNALQSGNSQESVTEQDSKDSTYSLSSTLTLSKADYEKHKVYACEVTHQGLSSPVTKSFNRGEC
notes: one-arm antibody
B3: CE115HA000 N31K (antibody, human IgG1, kappa, L234A L235A, N297A, name in Kabat numbering)
heavy: QVQLVESGGGVVQPGRSLRLSCAASGFTFSKAWMHWVRQAPGKGLEWVAQIKAKSNNYATYYAESVKGRFTISRDDSKNSLYLQMNSLKTEDTAVYYCRYVHYGAYYGVDAWGQGTTVTVSSASTKGPSVFPLAPSSKSTSGGTAALGCLVKDYFPEPVTVSWNSGALTSGVHTFPAVLQSSGLYSLSSVVTVPSSSLGTQTYICNVNHKPSNTKVDKKVEPKSCDKTHTCPPCPAPEAAGGPSVFLFPPKPKDTLMISRTPEVTCVVVDVSHEDPEVKFNWYVDGVEVHNAKTKPREEQYASTYRVVSVLTVLHQDWLNGKEYKCKVSNKALPAPIEKTISKAKGQPREPQVYTLPPSRCELTKNQVSLSCAVKGFYPSDIAVEWESNGQPENNYKTTPPVLDSDGSFFLVSKLTVDKSRWQQGNVFSCSVMHEALHNHYTQKSLSLSPDYKDDDDK
chain: EPKSSDKTHTCPPCPAPELLGGPSVFLFPPKPKDTLMISRTPEVTCVVVDVSHEDPEVKFNWYVDGVEVHNAKTKPREEQYNSTYRVVSVLTVLHQDWLNGKEYKCKVSNKALPAPIEKTISKAKGQPREPQVCTLPPSRDELTKNQVSLWCLVKGFYPSDIAVEWESNGQPENNYKTTPPVLDSDGSFFLYSKLTVDKSRWQQGNVFSCSVMHEALHNRYTQKSLSLSP
light: DIVMTQSPLSLPVTPGEPASISCRSSQSLVHSNRNTYLHWYQQKPGQAPRLLIYKVSNRFSGVPDRFSGSGSGTDFTLKISRVEAEDVGVYYCGQGTQVPYTFGQGTKLEIKRTVAAPSVFIFPPSDEQLKSGTASVVCLLNNFYPREAKVQWKVDNALQSGNSQESVTEQDSKDSTYSLSSTLTLSKADYEKHKVYACEVTHQGLSSPVTKSFNRGEC
notes: one-arm antibody
B4: CE115HA000 N31Q (antibody, human IgG1, kappa, L234A L235A, N297A, name in Kabat numbering)
heavy: QVQLVESGGGVVQPGRSLRLSCAASGFTFSQAWMHWVRQAPGKGLEWVAQIKAKSNNYATYYAESVKGRFTISRDDSKNSLYLQMNSLKTEDTAVYYCRYVHYGAYYGVDAWGQGTTVTVSSASTKGPSVFPLAPSSKSTSGGTAALGCLVKDYFPEPVTVSWNSGALTSGVHTFPAVLQSSGLYSLSSVVTVPSSSLGTQTYICNVNHKPSNTKVDKKVEPKSCDKTHTCPPCPAPEAAGGPSVFLFPPKPKDTLMISRTPEVTCVVVDVSHEDPEVKFNWYVDGVEVHNAKTKPREEQYASTYRVVSVLTVLHQDWLNGKEYKCKVSNKALPAPIEKTISKAKGQPREPQVYTLPPSRCELTKNQVSLSCAVKGFYPSDIAVEWESNGQPENNYKTTPPVLDSDGSFFLVSKLTVDKSRWQQGNVFSCSVMHEALHNHYTQKSLSLSPDYKDDDDK
chain: EPKSSDKTHTCPPCPAPELLGGPSVFLFPPKPKDTLMISRTPEVTCVVVDVSHEDPEVKFNWYVDGVEVHNAKTKPREEQYNSTYRVVSVLTVLHQDWLNGKEYKCKVSNKALPAPIEKTISKAKGQPREPQVCTLPPSRDELTKNQVSLWCLVKGFYPSDIAVEWESNGQPENNYKTTPPVLDSDGSFFLYSKLTVDKSRWQQGNVFSCSVMHEALHNRYTQKSLSLSP
light: DIVMTQSPLSLPVTPGEPASISCRSSQSLVHSNRNTYLHWYQQKPGQAPRLLIYKVSNRFSGVPDRFSGSGSGTDFTLKISRVEAEDVGVYYCGQGTQVPYTFGQGTKLEIKRTVAAPSVFIFPPSDEQLKSGTASVVCLLNNFYPREAKVQWKVDNALQSGNSQESVTEQDSKDSTYSLSSTLTLSKADYEKHKVYACEVTHQGLSSPVTKSFNRGEC
notes: one-arm antibody
B5: CE115HA000 N31R (antibody, human IgG1, kappa, L234A L235A, N297A, name in Kabat numbering)
heavy: QVQLVESGGGVVQPGRSLRLSCAASGFTFSRAWMHWVRQAPGKGLEWVAQIKAKSNNYATYYAESVKGRFTISRDDSKNSLYLQMNSLKTEDTAVYYCRYVHYGAYYGVDAWGQGTTVTVSSASTKGPSVFPLAPSSKSTSGGTAALGCLVKDYFPEPVTVSWNSGALTSGVHTFPAVLQSSGLYSLSSVVTVPSSSLGTQTYICNVNHKPSNTKVDKKVEPKSCDKTHTCPPCPAPEAAGGPSVFLFPPKPKDTLMISRTPEVTCVVVDVSHEDPEVKFNWYVDGVEVHNAKTKPREEQYASTYRVVSVLTVLHQDWLNGKEYKCKVSNKALPAPIEKTISKAKGQPREPQVYTLPPSRCELTKNQVSLSCAVKGFYPSDIAVEWESNGQPENNYKTTPPVLDSDGSFFLVSKLTVDKSRWQQGNVFSCSVMHEALHNHYTQKSLSLSPDYKDDDDK
chain: EPKSSDKTHTCPPCPAPELLGGPSVFLFPPKPKDTLMISRTPEVTCVVVDVSHEDPEVKFNWYVDGVEVHNAKTKPREEQYNSTYRVVSVLTVLHQDWLNGKEYKCKVSNKALPAPIEKTISKAKGQPREPQVCTLPPSRDELTKNQVSLWCLVKGFYPSDIAVEWESNGQPENNYKTTPPVLDSDGSFFLYSKLTVDKSRWQQGNVFSCSVMHEALHNRYTQKSLSLSP
light: DIVMTQSPLSLPVTPGEPASISCRSSQSLVHSNRNTYLHWYQQKPGQAPRLLIYKVSNRFSGVPDRFSGSGSGTDFTLKISRVEAEDVGVYYCGQGTQVPYTFGQGTKLEIKRTVAAPSVFIFPPSDEQLKSGTASVVCLLNNFYPREAKVQWKVDNALQSGNSQESVTEQDSKDSTYSLSSTLTLSKADYEKHKVYACEVTHQGLSSPVTKSFNRGEC
notes: one-arm antibody
B6: CE115HA000 N31S (antibody, human IgG1, kappa, L234A L235A, N297A, name in Kabat numbering)
heavy: QVQLVESGGGVVQPGRSLRLSCAASGFTFSSAWMHWVRQAPGKGLEWVAQIKAKSNNYATYYAESVKGRFTISRDDSKNSLYLQMNSLKTEDTAVYYCRYVHYGAYYGVDAWGQGTTVTVSSASTKGPSVFPLAPSSKSTSGGTAALGCLVKDYFPEPVTVSWNSGALTSGVHTFPAVLQSSGLYSLSSVVTVPSSSLGTQTYICNVNHKPSNTKVDKKVEPKSCDKTHTCPPCPAPEAAGGPSVFLFPPKPKDTLMISRTPEVTCVVVDVSHEDPEVKFNWYVDGVEVHNAKTKPREEQYASTYRVVSVLTVLHQDWLNGKEYKCKVSNKALPAPIEKTISKAKGQPREPQVYTLPPSRCELTKNQVSLSCAVKGFYPSDIAVEWESNGQPENNYKTTPPVLDSDGSFFLVSKLTVDKSRWQQGNVFSCSVMHEALHNHYTQKSLSLSPDYKDDDDK
chain: EPKSSDKTHTCPPCPAPELLGGPSVFLFPPKPKDTLMISRTPEVTCVVVDVSHEDPEVKFNWYVDGVEVHNAKTKPREEQYNSTYRVVSVLTVLHQDWLNGKEYKCKVSNKALPAPIEKTISKAKGQPREPQVCTLPPSRDELTKNQVSLWCLVKGFYPSDIAVEWESNGQPENNYKTTPPVLDSDGSFFLYSKLTVDKSRWQQGNVFSCSVMHEALHNRYTQKSLSLSP
light: DIVMTQSPLSLPVTPGEPASISCRSSQSLVHSNRNTYLHWYQQKPGQAPRLLIYKVSNRFSGVPDRFSGSGSGTDFTLKISRVEAEDVGVYYCGQGTQVPYTFGQGTKLEIKRTVAAPSVFIFPPSDEQLKSGTASVVCLLNNFYPREAKVQWKVDNALQSGNSQESVTEQDSKDSTYSLSSTLTLSKADYEKHKVYACEVTHQGLSSPVTKSFNRGEC
notes: one-arm antibody

The binders below were run against T1, CD3 epsilon homodimer protein (UniProt P07766 23-126) (assay: SPR, CD3 epsilon homodimer on chip, one-arm antibody as analyte;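 note: surface plasmon resonance at 25 °C with CD3 epsilon homodimer amine-coupled to a CM4 sensor chip, antibody injected as analyte, HBS-EP+ as running buffer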).
T1 construct: also called CD3 (CD3 epsilon)
T1 sequence (P07766 23-126): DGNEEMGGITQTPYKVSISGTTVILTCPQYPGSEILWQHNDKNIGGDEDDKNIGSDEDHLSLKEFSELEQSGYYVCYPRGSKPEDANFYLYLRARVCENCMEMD

First: B1
Second: B2
The “KD ratio (KD of CE115HA000/KD of altered form)” value (shortened to “KD ratio”) of the first is higher: 0.96 for the first, 0.62 for the second.

Compared with B3, B4 is lower in “KD ratio” value: 0.97 for the first, 0.94 for the second.

Going from B5 to B6, the “KD ratio” value falls from 0.98 to 0.67.
